Test system: MS2 coat protein
Assay: apparent KD of MS2 coat protein; designed switch direction (-1 OFF switch, 1 ON switch): -1; higher = weaker reporter binding
Outline: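 Apparent KD, taken as the median over clusters for each design, was obtained by curve-fitting normalised cluster fluorescence. Designed RNA switches had been transcribed on Illumina chips by stalled E. coli RNA polymerase and titrated with SNAP-549-labelled MS2 coat protein, doubling from 0.7 or 1.5 nM to 3 µM.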

[1] = Eterna round: R95, input ligand: FMN 200 uM
[2] = Eterna round: R95, input ligand: microRNA oligo, concentration not stated
[3] = Eterna round: R95, input ligand: none
[4] = input ligand: microRNA oligo, concentration not stated

Row | Sequence | apparent KD of MS2 coat protein (input ligand: FMN 200 uM) [nM] | apparent KD of MS2 coat protein (input ligand: none) [nM] | apparent KD of MS2 coat protein [4] [nM] | also measured
1 | UUAGUGUGAGGAUAUGGUAAAGAUAAGAUGAUGAAAGAACUCCAGAAGGCACAUGAGGAUCACCCAUGUAGAUG [JL-ex4-2.13 Jieux mod] (puzzle: Exclusion 4) |  |  |  | apparent KD of MS2 coat protein [1]: 67.4 nM; apparent KD of MS2 coat protein [2]: 35.4 nM; apparent KD of MS2 coat protein [3]: 30.6 nM
2 | UUAUACGCUGAGGAUAUCUUCACUGAGAGGUGAAGAGAAGGCGGUACAUGAGGAUCACCCAUGUCUAUGGGCAG [Ex-6 Malc#20] (puzzle: Exclusion 6) |  |  |  | apparent KD of MS2 coat protein [1]: 376 nM; apparent KD of MS2 coat protein [2]: 312 nM; apparent KD of MS2 coat protein [3]: 479 nM
3 | UUAUACGUUGAGGAUAUGUCAUUUAGUAUAGUUACAGAAGGCGAUACAUGAGGAUCACCCAUGUUUAUGGGCAU [Ex-6 Malc#2] (puzzle: Exclusion 6) |  |  |  | apparent KD of MS2 coat protein [2]: 166 nM
4 | UUAUCUACUGAGGAUAUUAUAUCACCCGACUGAUAAGAAGGCAGUACAUGAGGAUCACCCAUGUGGGUAGCCAU [Polaris10] (Eterna round: R97, puzzle: Exclusion 6) | 43 | 32.6 |  | 
5 | UUAUUAUAUGUAGGAUAUGCAUAUUGUUGUUAUGCAGAAGGACAUGAGGAUCACCCAUGUAUAUUAUUGUUAUGUAUUAUAUAU [Title] (Eterna round: R96, puzzle: Exclusion NG 1) | 64.7 | 37.1 | 23.3 | 
6 | UUAUUAUAUGUAGGAUAUGCGUAUUAUUGUUAUGCAGAAGGACAUGAGGAUCACCCAUGUAUAUUAUUGUUAUGUAUUAUAUAU [Title] (Eterna round: R96, puzzle: Exclusion NG 1) |  |  | 26.6 | 
7 | UUAUUGUAUGUAGGAUAUGCAUAUUAUUAUUAUGCAGAAGGACAUGAGGAUCACCCAUGUAUAUUAUUAUUAUAUAUUAUAUAU [Title] (Eterna round: R96, puzzle: Exclusion NG 1) |  |  | 24.6 | 
8 | UUAUUUAGGUAGGAUAUCGAUACCAAUUACUAUCGAGAAGGGUCUACAUGAGGAUCACCCAUGUUAGCAUGUUU [LRO-Excl6-12-Rocketman] (Eterna round: R97, puzzle: Exclusion 6) | 26.4 | 24.9 |  | 
9 | UUAUUUAGUGUGAGGAUAUGCUGGUCCUUGGAUCAGCAGAAGGCACAUGAGGAUCACCCAUGUAAUAUAUUAAU [JL bmx4 3.06] (puzzle: Brourd's mod of Exclusion 4) |  |  |  | apparent KD of MS2 coat protein [2]: 73.1 nM
10 | UUAUUUAGUGUGAGGAUAUGCUGGUCGAUAGAUCAGCAGAAGGCACAUGAGGAUCACCCAUGUAAUAUAUUAAU [Mat - Exclusion 4 - JL Mod - D33] (puzzle: Brourd's mod of Exclusion 4) |  |  |  | apparent KD of MS2 coat protein [1]: 395 nM; apparent KD of MS2 coat protein [2]: 50 nM; apparent KD of MS2 coat protein [3]: 72.7 nM
11 | UUCACAUGGACAUGAGAUCACAUGAGGAUCACCCAUGUGAAUAACAAGCUUUUUGCUCGUCUUAUGUCCAAUAAUAU [Stov1/14-C3] (Eterna round: R97, puzzle: Sensor, turn-off variant 1) | 13.1 | 13.1 |  | 
12 | UUCAUGUAAGGAUAUGUAGUGAUGACGAAAUUUGUCGUUAAACAGAAGGUACAUGAGGAUCACCCAUGUAGCUA [EX4 B.9] (Eterna round: R97, puzzle: Exclusion 4) | 133 | 27.4 |  | 
13 | UUCCAACAUGAGGAUCACCCAUGUCAGGAUAUCUAGGCUACUGCUACCACAAUUAGCUAGAGAAGGGACAAGAU [EX1 B.14] (Eterna round: R97, puzzle: Exclusion 1) | 26.1 | 19.5 |  | 
14 | UUCCUCACUUCUUUGUCUCACAUGAGGAUCACCCAUGUAAUAUAGGAUAUGCUUAGUAUUUCUAUGCAGAAGGAUAUUAGUUUU [JR_ExcNG3_Sub086] (Eterna round: R96, puzzle: Exclusion NG 3) | 111 | 32.3 | 27.3 | 
15 | UUCCUCUUUGUGAGGAUAUCGUCCGUUUUUUGUUACGAGAAGGCACAUGAGGAUCACCCAUGUUUUUUGUUUUU [JR_BMOE4_Sub076] (puzzle: Brourd's mod of Exclusion 4) |  |  |  | apparent KD of MS2 coat protein [2]: 21.4 nM
16 | UUCGGCGCAGGAUAUACAGUUCUGUGUUGAAUCGGCGCGGGACAUGAGGAUCACCCAUGUAGAAGGGUGUUGGG [-26.9, -23.2 kcal, A 22%] (Eterna round: R97, puzzle: Exclusion 2) | 220 | 538 |  | 

Row | Sequence | apparent KD of MS2 coat protein (input ligand: FMN 200 uM) [nM] | apparent KD of MS2 coat protein (input ligand: none) [nM] | apparent KD of MS2 coat protein [4] [nM] | also measured
17 | UUCGUGCAGCUUUGCUGUACGCGUACAUGAGGAUCACCCAUGUAGGAUAUGGUAGGCUUUGCUUACUAGAAGGAUAUUGUGAUC [JL EXNG3 1.32] (Eterna round: R96, puzzle: Exclusion NG 3) | 256 | 123 | 80.9 | 
18 | UUCGUGCUGCUUUGCUGUACGAGUACAUGAGGAUCACCCAUGUAGGAUAUGGACAUGAGGAUCACCCAGAAGGAUAUGUGUUGC [salish99_ExNG3_r04_508] (Eterna round: R96, puzzle: Exclusion NG 3) |  |  | 87.5 | 
19 | UUCGUGCUGCUUUGCUGUACGAGUACAUGAGGAUCACCCAUGUAGGAUAUGGUUCGCUUUGCGUGCUAGAAGGAUAUGUGUUGC [salish99_ExNG3_r04_507] (Eterna round: R96, puzzle: Exclusion NG 3) | 26.2 | 26 | 17.8 | 
20 | UUCGUGUAAGGAUAUACGACUCAUCCCAAUGGGACGAGCACGUAGAAGGUACAUGAGGAUCACCCAUGUGCUCC [Eddianle] (Eterna round: R96, puzzle: Exclusion 4) | 284 | 39.9 | 33.3 | 
21 | UUCUUGCGCGUGAGGAUAUGCUGAUCCCAGGAUUAGCAGAAGGCACAUGAGGAUCACCCAUGUCCAACUUGUCU [LRO-BmodExc4-15- Bluer = mod of Colors by Tatyana Zabanova] (Eterna round: R97, puzzle: Brourd's mod of Exclusion 4) | 51.4 | 38.6 |  | 
22 | UUGAAAGGUGUAGGAUAUGUAUGAGGAUCACCCAUUAAUAAAUUUUAACCACGAGGAUCACCCGUGUAGAAGGACACCUUUCAA [pwkr exNG2 2xF5 1xFMN.18] (Eterna round: R96, puzzle: Exclusion NG 2) | 36.9 | 31.8 | 18 | 
23 | UUGAACAUAGGAUAUAGUUGUUUGUACAUGAGGAUCACCCAUGUUAUGUAUGUUUUGUUUCUAGAAGGAUGUUGAU [JR_E5_Sub002] (puzzle: Exclusion 5) |  |  |  | apparent KD of MS2 coat protein [2]: 32.5 nM
24 | UUGACGUCGUCAGGAUAUAGUUUUAAUGUCAUGCGUAUGUUCUUACAUGAGGAUCACCCAUGUCGCUAGAAGGGACUAAAGAUU [JR_ExcNG2_Sub011] (Eterna round: R96, puzzle: Exclusion NG 2) | 27.6 | 34.7 | 23.5 | 
25 | UUGAUGUCAUCAGGAUAUAGUAUUUAAGACAUAUCUUCUUUCAAACAUGAGGAUCACCCAUGUCGCUAGAAGGGAUGAUUGAUU [JR_ExcNG2_Sub084] (Eterna round: R96, puzzle: Exclusion NG 2) |  |  | 11.9 | 
26 | UUGAUGUGAGGAUAUAUAUGGUUGUUUUUUUAUUUUUUAUUACUUGAGGAUCACCCAAGUAGAAGGCGCUACGU [JR_Ex2_Sub068] (Eterna round: R97, puzzle: Exclusion 2) | 25.5 | 29.5 |  | 
27 | UUGCAGUCGUCAGGAUAUAGUAUUACGGCCUUUCAUUUCUUCAUACAUGAGGAUCACCCAUGUCGCUAGAAGGGAUUAUCGCUU [salish99_ExNG2_r04_107] (Eterna round: R96, puzzle: Exclusion NG 2) | 16.4 | 20.6 | 14.6 | 
28 | UUGGUUGUGGUAGGAUAUCCGUUGGAAACUGUUGGAGAAGGACCACAGUCACUGGGUCCUUGUUUGGUGGAGUGGAAGAACCAU [pwkr exNG1 F6.16] (Eterna round: R96, puzzle: Exclusion NG 1) | 453 | 329 | 294 | 
29 | UUGUACCGGUGAGGAUAUUUUUAAUAGAACUUUAUGAUAUACAUGAGGAUCACCCAUGUUACUUUAAAGAAGGCAUCGGAUUAU [JL JR Sub091 mod 1] (Eterna round: R96, puzzle: Exclusion NG 2) |  |  | 12.9 | 
30 | UUGUGCACGCUGCGAUCCUACAUGAGGAUCACCCAUGUGGUCUGGUGGCGUGGGUCACCGGACUUGGCUCGUCUUGG [salish99_S_TOV1_R5_076] (Eterna round: R97, puzzle: Sensor, turn-off variant 1) | 126 | 138 |  | 
31 | UUGUUACAUGAGGAUCACCCAUGUGAGGAUAUGGUUCAGUACUGUAAUGUAAAGUACUCCAGAAGGCACAUGUU [1st #28] (Eterna round: R97, puzzle: Exclusion 1) | 693 | 264 |  | 

— the supplement of paper PMC9170038
